# Data: PMC8537947, “Improved Radiolytic Stability of a ^68Ga-labelled Collagelin Analogue for the Imaging of Fibrosis” (Pharmaceuticals, 2021)
# Bridge positions count the residues as written; N and C are the ends. Square brackets hold non-standard residues; d marks the D form. Peptide text beside a SMILES is read from it. * marks the point of attachment. NOTA = O=C(O)CN1CCN(CC(=O)O)CCN(CC(=O)*)CC1; Nle = CCCC[C@H](N)C(=O)O; AEEA = NCCOCCOCC(=O)O
# Experiments:
# in vivo = conditions: female, BALB/c, mouse, iv, total radioactivity
# Method: The animals (BALB/c female mice, n = 6) were administered with carbon tetrachloride (CCl4) formulated in a corn oil solution (20%, 0.5 mg per gram of body weight) into the lower side of the abdomen three times a week for three weeks. The wellbeing of the animals was monitored for 30 min after the injection and once per day afterwards. The development of liver fibrosis was confirmed by post-mortem Sirius Red staining of the PFA liver biopsies.
# Healthy mice (n = 4, 19.6 ± 1.0 g) and mice with CCl4 induced liver fibrosis (n = 5, 21.55 ± 1.12 g) were intravenously administered with [^68Ga]Ga-NO2A-[Nle^13]-Col (5.2 ± 2.1 MBq, 0.31 ± 0.09 ug and 6.1 ± 2.1 MBq, 0.35 ± 0.08 ug) and the tracer organ distribution was studied after a 60 min incubation ex vivo (Table S1). The weight of the excised organs of interest (blood, heart, lung, liver, pancreas, spleen, kidney, intestines, muscle, brain) was noted and the radioactivity was measured using an automated gamma counter (2480 Wizard2^TM, PerkinElmer, Waltham, MA, USA) with a correction for dead-time and radioactivity decay.
# [1] = design: species or system human
# Description: The rat SUVs were translated into a percentage of injected activity (%IA, Equation (3)) for human organs according to Equation (3) (Table S3), where SUVA is the SUVs of the rat organs; gorgan and kgTBweight are, respectively, standard organ weight and standard total body weight of a human. The standard organ masses and total-body weight values were obtained from the OLINDA software (organ level internal dose assessment code, Vanderbilt University, USA, 2007). (3) %IAOrganhuman=SUVA∗gorgan/kgTBweighthuman The %IA values were decay corrected to the animal termination time point at 5, 10, 30, 40, 60, and 120 min post administration and plotted as a function of time. The area under the curve for each organ was integrated using the trapezoid method assuming a simple exponential decay to eternity after the last point. The derived time-integrated activity coefficient (TIAC) for each organ, which is equal to the number of disintegrations (MBq-h/MBq) and dose rate S-values extracted from the Medical Internal […] (MIRD) pamphlet, was used for the computation of organ and whole-body effective doses (mSv/MBq) in humans in the OLINDA/EXM software package (Version 1.1, Vanderbilt University).
structure (smiles),measurement,setting,value
"CCCC[C@@H]1NC(=O)[C@H](C(C)C)NC(=O)[C@H](CCCNC(=N)N)NC(=O)CNC(=O)[C@@H]2CCCN2C(=O)[C@@H](NC(=O)COCCOCCNC(=O)CN2CCN(CC(=O)O)CCN(CC(=O)O)CC2)CSSC[C@@H](C(=O)O)NC(=O)[C@@H]2CCCN2C(=O)CNC(=O)[C@H](CCC(=O)O)NC(=O)[C@H](CC(=O)O)NC(=O)[C@H](CC(=O)O)NC(=O)CNC(=O)[C@H](CC(C)C)NC(=O)[C@H](Cc2c[nH]cn2)NC(=O)[C@H](CC(C)C)NC(=O)CNC(=O)[C@H](Cc2c[nH]cn2)NC1=O [[^68Ga]Ga-NO2A-[Nle^13]-Col, [^68Ga]Ga-NOTA-PEG2-c[CPGRVNleHGLHLGDDEGPC], metal not drawn] ({NOTA-AEEA}-CPGRV[Nle]HGLHLGDDEGPC-OH; disulfide 1-18)",SUV at 1 h,"in vivo; 5.2 MBq, SUV lungs (LU)",0.0679 SUV
same,SUV at 1 h,"in vivo; 6.1 MBq, SUV kidneys (KI)",2.12 SUV
same,PET/CT examinations per year,[1],4-5
same,administration per year allowed by bone marrow absorbed dose,[1],"8000-10,000 MBq per year"
same,dose of all organs other than kidney,[1],lower than 0.02 mSv/MBq
same,dose of the remaining organs,[1],less than 0.009 mSv/MBq
same,"estimated absorbed dose, spleen",[1],0.003 mGy/MBq
